# Results as given in the DeepSol protein solubility set.
# Test: soluble on expression in E. coli; label from the status in PepcDB or PDB records
row,Sequence,soluble on expression in E. coli
1,MAHHHHHHMSKKERYKIWKRIPKCELHCHLDLCFSADFFVSCIRKYNLQPNLSDEEVLDYYLFAKGGKSLGEFVEKAIKVADIFHDYEVIEDLAKHAVFNKYKEGVVLMEFRYSPTFVAFKYNLDIELIHQAIVKGIKEVVELLDHKIHVALMCIGDTGHEAANIKASADFCLKHKADFVGFDHGGHEVDLKEYKEIFDYVRESGVPLSVHAGEDVTLPNLNTLYSAIQVLKVERIGHGIRVAESQELIDMVKEKNILLEVCPISNVLLKNAKSMDTHPIRQLYDAGVKVSVNSDDPGMFLTNINDDYEELYTHLNFTLEDFMKMNEWALEKSFMDSNIKDKIKNLYF,not soluble
2,MAHHHHHHMATVGDPLFRIHEPTYAFLDCSACIAFAGHLGRRMNESIRYGGRGGATFLSSHRLGKDNKLKRRDYATSELRGAEVLEKICNDSLFDDYALHFRADMRIRVYDNGESEYPLAQHYSKEDSRILKAVKTKAVHVFCTRVMDEEEDAMTSLVREVELLSELEQRLCGGYLEMRNITAPPFPVEKAVTAVCVGVEPSIEAEVRRLEKYEKWQASISKGTSQDKMKGAEGAESVVVKGVQYSKDDPLSFTVLRKPNAKSNGDTTEGGSDAAEDVRKQPDKDSVFMNFDL,not soluble
3,MGSDKIHHHHHHMPKLASIAPSMESTRPLLQPITVVNRQLQAHCHVMSHSHLWGQFVYASQGVLAVNTPAARYLVTPEQGVWVNSNISHSVTAITEVRLTSFYLDESQCQALPEQSCVLNVAPFLHALIQEARLIPSDFDWQGPRGRLLRLIRDWLSEAKNAPFHLPYSSHPKLMQLFGELQNNPANQDNIATWGQRLGASSRTLSRLIKAETGLSYRHWRQRLNLQLSLSLLAQGHSINHIADSLGYASPSAFIHMFKQQTGDSPARYRK,not soluble
4,MSLKKIGVLGMGYVGIPAAVLFADAPCFEKVLGFQRNSKSSGYKIEMLNRGESPLKGEEPGLEELIGKVVKAGKFECTPDFSRISELDAVTLAIQTPFANPKDLEPDFSALIDGIRNVGKYLKPGMLVVLESTITPGTTEGMAKQILEEESGLKAGEDFALAHAPERVMVGRLLKNIREHDRIVGGIDEASTKRAVELYSPVLTVGQVIPMSATAAEVTKTAENTFRDLQIAAINQLALYCEAMGINVYDVRTGVDSLKGEGITRAVLWPGAGVGGHCLTKDTYHLERGVKIGRGELDYPEGADSIYVLARKVNDFMPAHMYNLTVAALERLGKKMDGSKVAMLGWAFIKDSDDARNTPSEPYRDLCLKAGASVMVHDPYVVNYPGVEISDNLEEVVRNADAIVVLAGHSAYSSLKADWAKKVSAKANPVIIDGRNVIEPDEFIGKGFVYKGIGRGDKNSHKIKEGHHHHHH,soluble
5,MGSDKIHHHHHHIANVETSSRNAIGFNVLSNAAETRATPTTNTNLKNTDFDVFAFTADGTAFMGKNDTEFEHDGVKIVYKNGKWDYDNASDLRYWPTEALDFYAFNPGTVSEDMMAFYSWEATKDVQKISYTCMDEYGSGTTHANYDVMYAMAKGQTKDMNNGIVKFNFKHILSQVVFKAKTQYDNMQVDIDVIKIHNFKFAGAFTLPAAADGTGSWSSSDLAFPHAFTVVKNANITVNSNTEATDITTNTPMLNIPQELTAWKVSETATKSKLEADNAKQCYLEIACKIRQSGAYLLGSASEYKTIYVPFGDTWEQGKRHIYTLIFGGGYDDQGEAVLNPIQFDAETTGWVDADKDVNVQP,not soluble
6,MLLFSAFLIFGFSIGFSEEASCRHPHERFIGTRCYAFVSKKHTYNTAKEYCDSHGYSLATVDNAITSNFLASSAATEFGSNNGQFWIGLSRKKDYELFNWDDGTIVSYTNFEAGFPNKQDFVAENVRNGRWQTLAEHKELEFVCSYDPTATTSAAPTTIPPTTTTTRAPTTTTVRKTTQTTATTMTTPKPTTTVSTTTTTTVPPTTTPKACPQGFVLFEPTQKCYIVLVYGNDSDYPDVPDDAPFLTRENQRCAKYGATVATIHSSDLNDLFRSLIYERFNDTRYATIGLRNIDMKTISGKWQWFDGTSPDYLNFGNMFPKTGDYIAQTSSQGFWVSYTHTAPNEGVVCSKNRKSERGFTGLVDIDQAAIKKLELQTYLK,not soluble
7,MGSSHHHHHHSSGRENKYFQGHMRNVALITGITGQDGSYLAEFLLEKGYEVHGIVRRSSSFNTGRIEHLYKNPQAHIEGNMKLHYGDLTDSTCLVKIINEVKPTEIYNLGAQSHVKISFDLAEYTADVDGVGTLRLLDAVKTCGLINSVKFYQASTSELYGKVQEIPQKETTPFYPRSPYGAAKLYAYWIVVNFREAYNLFAVNGILFNHESPRRGANFVTRKISRSVAKIYLGQLECFSLGNLDAKRDWGHAKDYVEAMWLMLQNDEPEDFVIATGEVHSVREFVEKSFLHIGKTIVWEGKNENEVGRCKETGKVHVTVDLKYYRPTEVDFLQGDCTKAKQKLNWKPRVAFDELVREMVHADVELMRTNPNAGS,soluble
8,MGSDKIHHHHHHMPYFERDGYYIDRCPECRFVYVRNVPSDGTLAAFYSGYYGDVNEFVPVSRKRLSKRFSKSVENWWHARNLVRCAAGRRKLLEIGYGEGHLLMALKQTRRFELRGIDYATGPMAYMSANGIDVAQGSLFDQHYPDNRFEFIVGFHVLEHVQHLGEFMSEVRRVLAPAGRVYFVVPCVTHFSAVRRRQNWKHFGPPGHLWYFSVTAMRRFMTDQDFKVVSAHCISNRTHLTVLAEKTS,not soluble
9,MAHHHHHHMLFRTIRHFDLRRPTLMELVRELRFRTEAPIADCCAALKEANENMDRALEVLRNKGLAKAVKKGSRVTEHGSVVACVGETFGAAIVTVCSETDFAARSLQFQRVCGTVMETLRTQIISTEGTALDDCAAVHRLLTDAAAEQIQATIAVLGENVTIKSIQPLRFAPHVAEHISIGAYTHGTLSVQNVGRVAGVVAVSRTDPSARVPEEKLVDVARHFVACSGAEGSYAHQNFFGTEETVGQWLKRHGLRFSSSLVVDFGKEPIIHTAPQPVAGTK,soluble
10,MKRLLVFLPLLLLACAPKPEAEAPQTTAPLRVQVRTLKAEPGLLTREARASANVVAEKESLVAAGASGRVVRTLPAGTRVRAGEGVVFLDPAPFQEALAQAKLALRQAEENLARAEAQTEGNRKALEAQLAAAEAQLAAAKRRYEEGKALLALGALAPLELKGLEAQYLQAQSAYENAKEALARLEREDDLRLLRLQVEAARLQVQQAERNLKESVVRAPFAGEVVEVYVKEGEFTGAGSRAFRLATTDRLLVKVYLPPERAAALTEDTAFRVRQNGKEVEARLQAKSDLPGQNRLVEVTLRPTGPLLPGAAEVRYPEVLAEGLLLPAGAVRTEDGEAFVYVVEEGRARKRPVRLLAQEGGRAAVAGLEAGEAVVYPVPEGLEDGDLVEVVP,soluble
11,MKFHVIDRENWNREQYFEHYLELKCTFSMTVNVDITLLIKKVHQKGIKFYPTFIYIISRIINKHKEFRTCFNDEGVLGYWEEMIPSYTIFHKDDKSFSSIWTDYSSDFRIFYKNYEEDMRCYASVHGLLTKENIPPNIFPISGIPWTSFTGFNLNINNDGDFLLPIITCGKYFNEENKIMLPVSLQVHHSVCDGYHVSRFIEDLQELSNSCNEWLK,not soluble
12,MGSDKIHHHHHHMKAFDRDASEPRIGLAYGPGMAEFAARNAHLVDYIEVPFEQLRFSPAVAELQQTIPFVLHCASLSVAGFVPPDDSTVDAIERTAVQTGTPWIGEHLAYISADPVGEALGGTGEPTSLSYTLCPQLSDETVRRVVDNLAALRPHFPVPLIVENSPQYFPIPGSTMGMTDFIRAITDRCDVGLLLDLSHFLITAHNTGAEVHRELARLPLERVVEVHLSGMSVQSGTAWDDHSLPASPILFELLERLLDVARPRALTFEYNWSPYFPLSVLTTHIERARQLMGLA,not soluble
13,MGSDKIHHHHHHAACSNDEKITESTPKTVALTVKLPEFGGASSRAIDPETTTGNKVTINGPVKIIARVSQGGAITNTISENITAGSMSTITVSGAAQWIEVEANGDNSTETDNVNTRQGSATSSKVRLFGGATINPGSGGNATCTPTISPDMARVEVKGSLGTSWTHLTDLKVKGIYINNIKLTRGVSSLTRIASAAWNTEYAPSGKFEKMFNDNLGGVGAGAGVAQITPGQADGYNFFPQKDNTLPLPTTKEDVMKNSIHIIMEVEFTRADGVPVVGPQWLNVVALKDNTATNYITDFEAGNVYSIDLADIKDIMDVPVPPVTPNPDPETVSVDLTVSIGQWTVVQVKPEV,not soluble
14,SPAPPACDLRVLSKLLRDSHVLHSRLSQCPEVHPLPTPVLLPAVDFSLGEWKTQMEETKAQDILGAVTLLLEGVMAARGQLGPTCLSSLLGQLSGQVRLLLGALQSLLGTQLPPRGRTTAHKDPNAIFLSFQHLLRGKVRFLMLVGGSTLCVRRAPPTTAVPS,soluble
15,MKSRFRFHLCCVCMLALAVAGCKVKRPDDVISESKMENLLYDYHLAKSMGDNLPYNENYKKTLYLDAVFKKYGTTEAVFDSSLVWYTRNTEVLSKIYEKVSKRLKAQQNEINHLIALRDNKPKMSEPGDSIDVWPWKCFIRLTGEMMNDQYAFVLPVDTNYKDRDTLVWEVRYRFLEPMLADSLRAVTMAMQVIYEKDTLNHLETITDPGVHQIRLYADTLGVMKEIKGFIYYPGVQGEKAGALLADRFALTRYHCSDSLSVAERDSINQLEALKTDSLKKVSDQKDTKISKDSLRKVDDLKDNQRISPEEMNRRRTVTPEKKPEQIEVEQHIQQEKIEQRRERQLNQRRNQQRRQSPSR,not soluble
16,SLCDKIFHNLSGKTLVATPYVITKGIYHKSLIYMLSHTEEGAIGLIFNRLVNHVDLKSFFKIKEDKITSQVIVPIYLGGPIEHEKGFFLHSRDYNKNLLLDFHNDLAVSSNLEISEDIAFGQGPKNSLFIVGYTAWKPGQLEEELEKNLWLVMDCNKEFIFADNPENKWHNALKHLGIDEMYFSSQIGNA,soluble
17,MSLSNTELILIRVTGEDRPGLTASVTEILAKYDATILDIGQADIHNTLSLGILFRSEERHSGFIMKELLFKASSLGVTIRFEPIGTDQYENWVGMQGKNRYILTVLGRKLSARQISAATRVLAEQDLNIDAIKRLTGRIPLDEDKTDTRTRACIEFSVRGTPKDRIAMQERLMQLASEQEMDFSFQQDNMYRRMRRLICFDMDSTLIETEVIDELAIRAGVGDEVKAITESAMRGEIDFTESFTRRVALLKGLDESVMQEIAESLPITEGVDRLMYVLKKYGYKIAILSGGFTYFGQYLQKKYGIDYVYANELEIVDGKLTGRYLGDVVDGKRKAELLRLIAQVEKVDIAQTIAVGDGANDLPMLGIAGLGIAFHAKPKVVANAKQSINTIGLDGVLYFLGFKDSYLNEGHHHHHH,soluble
18,EEVTVVAFAKQKKESVIGSIQTVKPAELKTPSSNLTTSLAGRMAGVIAYQRSGEPGKDNANFFIRGVTTFGYKKDPLILLDNVEVSSDDLARVQPDDIASFSVLKDATSTALYGARGANGVILVTTKEGKEG,not soluble
19,MLHEIPKEEILEKLKNIGAKKVLIQSPEGLRREAEELAEFLEKNEIEVILHGEINYGACDPADHEARLLGCDALIHLGHSFMMLSLEVPTIFVPAFAKVNVVEALKKNLHEIKKLGKKIIVTTTAQHIHQLERAIEYLKSQGFEPVVGRGDNRVSWPSQVLGCNFSVAKVEGDGILFIGSGTFHPLGLALATGKRVLAVNPYSGDCQWINELAERFIRKRWAQIAKAMDAKRFGVVISTKRGQLRLNEAKRIIKLLKDHGREAKLIAMNDISYSKLEGFSFDAYVIVACPRVPIDDYENWRKPVLTPREVEILLGLREEYIFDEIPGGVREKDEPLGISLHSTRLEHHHHHH,not soluble
20,MTSPFKVVAVSGGTYRPSRTLVLTQALIAELGQSLPIDSRVIELTDIAAPLGATLARNQAPAELQAVLDEIESADLLLVASPVYRGSYPGLLKHLFDLIDLNALIDTPVLLAATGGTERHALVLDHQLRPLFSFFQAITLPIGVYASEADFDNYRIVSEPLKARIRLAAERAAPLFGGRSELLKIALEHHHHHH,not soluble
